Data taken from patent publication US20100129861.

Biological target: 43S complexes containing 40S subunits and eIFs 2/3/1/1A

B1: DHX29 (purified native DHX29, DExH-box helicase) (protein)
chain: MGGKNKKHKAPAAAVVRAAVSASRAKSAEAGIAGEAQSKKPVSRPATAAAAAAGSREPRVKQGPKIYSFNSTNDSSGPANLDKSILKVVINNKLEQRIIGVINEHKKQNNDKGMISGRLTAKKLQDLYMALQAFSFKTKDIEDAMTNTLLYGGDLHSALDWLCLNLSDDALPEGFSQEFEEQQPKSRPKFQSPQIQATISPPLQPKTKTYEEDPKSKPKKEEKNMEVNMKEWILRYAEQQNEEEKNENSKSLEEEEKFDPNERYLHLAAKLLDAKEQAATFKLEKNKQGQKEAQEKIRKFQREMETLEDHPVFNPAMKISHQQNERKKPPVATEGESALNFNLFEKSAAATEEEKDKKKEPHDVRNFDYTARSWTGKSPKQFLIDWVRKNLPKSPNPSFEKVPVGRYWKCRVRVIKSEDDVLVVCPTILTEDGMQAQHLGATLALYRLVKGQSVHQLLPPTYRDVWLEWSDAEKKREELNKMETNKPRDLFIAKLLNKLKQQQQQQQQHSENKRENSEDPEESWENLVSDEDFSALSLESANVEDLEPVRNLFRKLQSTPKYQKLLKERQQLPVFKHRDSIVETLKRHRVVVVAGETGSGKSTQVPHFLLEDLLLNEWEASKCNIVCTQPRRISAVSLANRVCDELGCENGPGGRNSLCGYQIRMESRACESTRLLYCTTGVLLRKLQEDGLLSNVSHVIVDEVHERSVQSDFLLIILKEILQKRSDLHLILMSATVDSEKFSTYFTHCPILRISGRSYPVEVFHLEDIIEETGFVLEKDSEYCQKFLEEEEEVTINVTSKAGGIKKYQEYIPVQTGAHADLNPFYQKYSSRTQHAILYMNPHKINLDLILELLAYLDKSPQFRNIEGAVLIFLPGLAHIQQLYDLLSNDRRFYSERYKVIALHSILSTQDQAAAFTLPPPGVRKIVLATNIAETGITIPDVVFVIDTGRTKENKYHESSQMSSLVETFVSKASALQRQGRAGRVRDGFCFRMYTRERFEGFMDYSVPEILRVPLEELCLHIMKCNLGSPEDFLSKALDPPQLQVISNAMNLLRKIGACELNEPKLTPLGQHLAALPVNVKIGKMLIFGAIFGCLDPVATLAAVMTEKSPFTTPIGRKDEADLAKSALAMADSDHLTIYNAYLGWKKARQEGGYRSEITYCRRNFLNRTSLLTLEDVKQELIKLVKAAGFSSSTTSTSWEGNRASQTLSFQEIALLKAVLVAGLYDNVGKIIYTKSVDVTEKLACIVETAQGKAQVHPSSVNRDLQTHGWLLYQEKIRYARVYLRETTLITPFPVLLFGGDIEVQHRERLLSIDGWIYFQAPVKIAVIFKQLRVLIDSVLRKKLENPKMSLENDKILQIITELIKTENN
**Q.** How did the NTPase activity turn out when B1 was run?
**A.** DHX29's NTPase activity was strongly stimulated by 43S complexes, whereas stimulation by single-stranded RNA was low
